{"source": "paper PMC8615638", "about": "“Tumor Marker B7-H6 Bound to the Coiled Coil Peptide-Polymer Conjugate Enables Targeted Therapy by Activating Human Natural Killer Cells” (Biomedicines, 2021)", "molecules": {"B1": {"name": "coiled coil B7-H6 (B7-H6CC) (ligand)", "chain": "ITGDLKVEMMAGGTQITPLNDNVTIFCNIFYSQPLNITSMGITWFWKSLTFDKEVKVFEFFGDHQEAFRPGAIVSPWRLKSGDASLRLPGIQLEEAGEYRCEVVVTPLKAQGTVQLEVVASPASRLLLDQVGMKENEDKYMCESSGFYPEAINITWEKQTQKFPHPIEISEDVITGPTIKNMDGTFNVTSSLKLNSSQEDPGTVYQCVVRHASLHTPLRSNFTGTVAALKEKVAALKEKVAALKEKVAALKEK", "notes": "additional N-terminal residues from the vector; B7-H6, extracellular domain, residues D25-T244 with stabilizing mutation C212S; GT and the (VAALKEK)4 coiled coil motif (peptide K), written out from -GT(VAALKEK)4H8G; C-terminus is -GT(VAALKEK)4H8G: the His8 is followed by a final G. In the flow cytometry the protein was labelled with AlexaFluor647 by NHS chemistry; Six N-glycosylation sites; also …"}}, "key": {"[1]": {"biological_target": "NKp30 (Homo sapiens) (UniProt O14931)", "test": "BLI", "settings": "cited from earlier work"}, "[2]": {"biological_target": "B1", "test": "AUC; sedimentation velocity, PolCC+ titrated with B7-H6CC; 20 °C, 42,000 rpm, 280 nm, SEC buffer", "settings": "both partners purified"}, "[3]": {"biological_target": "T1, high-affinity coiled coil B7-H6 (haB7-H6CC; S60Y, F82W, L129Y) (UniProt Q68D85 25-244, C212S | S60Y | F82W | L129Y)", "T1 construct": "additional N-terminal residues from the vector, as in B7-H6CC; GT and the (VAALKEK)4 coiled coil motif, as in B7-H6CC; C-terminus -GT(VAALKEK)4H8G; source: HEK293T (suspension-adapted), transient transfection, secreted, purified (IMAC, SEC); not shown: His8 (H8G), C-terminal, kept", "T1 sequence": "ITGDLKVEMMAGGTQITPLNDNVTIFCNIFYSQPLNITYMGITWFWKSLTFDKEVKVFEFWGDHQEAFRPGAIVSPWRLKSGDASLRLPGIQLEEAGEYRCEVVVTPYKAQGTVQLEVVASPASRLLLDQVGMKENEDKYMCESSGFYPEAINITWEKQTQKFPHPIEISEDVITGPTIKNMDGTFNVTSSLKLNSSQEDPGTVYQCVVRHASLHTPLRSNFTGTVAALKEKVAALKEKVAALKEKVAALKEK", "test": "ITC; NKp30 (124-182 µM) injected into a cell with the B7-H6 variant (15.6-25.0 µM); 25 °C; 10 mM HEPES, 150 mM NaCl, 10 mM NaN3, pH 7.5; fitted as A + B <=> AB, N = 1 - incompetent fraction of B7-H6", "settings": "both partners purified"}, "[4]": {"biological_target": "B1", "test": "ITC; NKp30 (124-182 µM) injected into a cell with the B7-H6 variant (15.6-25.0 µM); 25 °C; 10 mM HEPES, 150 mM NaCl, 10 mM NaN3, pH 7.5; fitted as A + B <=> AB, N = 1 - incompetent fraction of B7-H6", "settings": "both partners purified"}, "[5]": {"biological_target": "T2, wild-type B7-H6 (extracellular domain of B7-H6 without the coiled coil tag, C212S) (UniProt Q68D85 25-245, C212S)", "T2 construct": "B7-H6, extracellular domain, residues D25-L245 with stabilizing mutation C212S; cloned as described previously [37]; also called non-modified B7-H6; soluble B7-H6 construct; source: HEK293T (suspension-adapted), transient transfection, secreted, purified (IMAC, SEC)", "T2 sequence (looked up)": "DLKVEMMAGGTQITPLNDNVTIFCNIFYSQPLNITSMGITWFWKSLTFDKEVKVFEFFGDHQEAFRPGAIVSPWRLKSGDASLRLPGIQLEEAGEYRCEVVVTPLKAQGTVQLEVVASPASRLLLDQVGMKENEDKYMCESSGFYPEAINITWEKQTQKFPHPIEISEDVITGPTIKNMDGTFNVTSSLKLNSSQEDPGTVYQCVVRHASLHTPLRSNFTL", "test": "ITC; NKp30 (124-182 µM) injected into a cell with the B7-H6 variant (15.6-25.0 µM); 25 °C; 10 mM HEPES, 150 mM NaCl, 10 mM NaN3, pH 7.5; fitted as A + B <=> AB, N = 1 - incompetent fraction of B7-H6", "settings": "both partners purified"}, "[6]": {"biological_target": "T3, high-affinity B7-H6 (haB7-H6; S60Y, F82W, L129Y) (UniProt Q68D85 25-245, C212S | S60Y | F82W | L129Y)", "T3 construct": "same doubt on the C-terminal limit (L245 or T244); also called untagged haB7-H6; source: HEK293T (suspension-adapted), transient transfection, secreted, purified (IMAC, SEC)", "T3 sequence (looked up)": "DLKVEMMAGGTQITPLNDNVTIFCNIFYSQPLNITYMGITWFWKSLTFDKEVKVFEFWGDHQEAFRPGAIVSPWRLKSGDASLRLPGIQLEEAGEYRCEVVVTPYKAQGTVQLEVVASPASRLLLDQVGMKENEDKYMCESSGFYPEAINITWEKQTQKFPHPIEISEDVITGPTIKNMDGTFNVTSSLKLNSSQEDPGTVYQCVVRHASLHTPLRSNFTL", "test": "ITC; NKp30 (124-182 µM) injected into a cell with the B7-H6 variant (15.6-25.0 µM); 25 °C; 10 mM HEPES, 150 mM NaCl, 10 mM NaN3, pH 7.5; fitted as A + B <=> AB, N = 1 - incompetent fraction of B7-H6", "settings": "both partners purified"}, "[7]": {"biological_target": "B1", "test": "AUC; sedimentation velocity, B7-H6CC titrated with NKp30; 20 °C, 48,000 rpm, 280 nm, SEC buffer; sw isotherm fitted with A + B <=> AB", "settings": "both partners purified"}, "[8]": {"biological_target": "B1", "test": "flow cytometry on cells; PolCC mixed with AlexaFluor647-labelled B7-H6CC and scFvCC (AlexaFluor488-labelled or not); complexes carried to CAIX-expressing cells by scFvCC and B7-H6CC detected on the cells; 45 min on ice, 1 µM polymer", "settings": "both partners purified"}, "[9]": {"biological_target": "the molecule itself", "test": "AUC; sedimentation velocity of B7-H6CC alone; 20 °C, 48,000 rpm, absorbance 280 nm, SEC buffer; monomer-dimer equilibrium"}}, "note": "Values joined by “and” are separate entries in the source; they are usually repeats but may differ in a detail not shown here. Equal entries are not always repeated. Where no end group is shown, it is not given here."}
{"molecule": "B7-H6 IgV domain (from UniProt Q68D85)", "values": [{"measurement": "Kd", "setting": "[1]", "value": 409, "unit": "nM"}]}
{"molecule": "VAALEKEVAALEKEVAALEKEVAALEKE (other, also: attached to HPMA copolymer via copper-free click chemistry, site not given here, (VAALEKE)4 coiled coil peptide, written out from the printed repeat; 130 kDa conjugate with approximately ten coiled coil peptides on each polymer chain (26% w/w); the polymer also carries biotin; Synthesis details are in File S1; source: synthetic peptide attached to HPMA copolymer (RAFT polymerization, copper-free click chemistry); purified by SEC; copies: 10)", "note": "[PolCC+: HPMA copolymer of increased length conjugated with (VAALEKE)4 coiled coil peptides]", "values": [{"measurement": "binding result", "setting": "[2]", "value": "binds"}]}
{"molecule": "NKp30 ligand-binding domain (residues L19-E130, receptor ectodomain without stalk region) (receptor, UniProt O14931 19-130, looked up, cloned as described previously [37]; source: HEK293T (suspension-adapted), transient transfection, secreted, purified (IMAC, SEC)) LWVSQPPEIRTLEGSSAFLPCSFNASQGRLAIGSVTWFRDEVVPGKEVRNGTPEFRGRLAPLASSRFLHDHQAELHIRDVRGHDASIYVCRVEVLGLGVGTGNGTRLVVEKE", "values": [{"measurement": "Kd", "setting": "[3]", "value": 259, "unit": "nM"}, {"measurement": "dH", "setting": "[3]", "value": -11.8, "unit": "kcal/mol"}, {"measurement": "stoichiometry N", "setting": "[3]", "value": 0.65}, {"measurement": "Kd", "setting": "[4]", "value": 787, "unit": "nM"}, {"measurement": "dH", "setting": "[4]", "value": -11.2, "unit": "kcal/mol"}, {"measurement": "stoichiometry N", "setting": "[4]", "value": 0.74}, {"measurement": "Kd", "setting": "[5]", "value": 668, "unit": "nM"}, {"measurement": "dH", "setting": "[5]", "value": -11.5, "unit": "kcal/mol"}, {"measurement": "stoichiometry N", "setting": "[5]", "value": 0.88}, {"measurement": "Kd", "setting": "[6]", "value": 115, "unit": "nM"}, {"measurement": "dH", "setting": "[6]", "value": -12.7, "unit": "kcal/mol"}, {"measurement": "stoichiometry N", "setting": "[6]", "value": 0.91}, {"measurement": "Kd", "setting": "[7]", "value": 895, "unit": "nM"}, {"measurement": "stoichiometry N", "setting": "[7]", "value": "0.78 and 1"}]}
{"molecule": "VAALEKEVAALEKEVAALEKEVAALEKE (other, also: attached to pHPMA copolymer via azide-alkyne cycloaddition, site not given here, (VAALEKE)4 coiled coil peptide, written out from the printed repeat; 56 kDa conjugate with approximately eight coiled coil peptides on each polymer chain (40% w/w); the polymer also carries biotin; The polymer itself is no protein; also called coiled coil peptide-polymer conjugate; pHPMA-(VAALEKE)4; source: synthetic peptide attached to HPMA copolymer by click chemistry, as described previously …)", "note": "[PolCC: pHPMA copolymer conjugated with (VAALEKE)4 coiled coil peptides]", "values": [{"measurement": "binding result", "setting": "[8]", "value": "binds"}]}
{"molecule": "B1", "values": [{"measurement": "stoichiometry N", "setting": "[9]", "value": 2}]}
